# Results reported in US20110288036A1 (published 2011).
# Where no end group is shown, it is not given here.
# T1: MKK4 (Mitogen-Activated Protein Kinase Kinase 4) (UniProt P45985 1-399)
# T1 sequence: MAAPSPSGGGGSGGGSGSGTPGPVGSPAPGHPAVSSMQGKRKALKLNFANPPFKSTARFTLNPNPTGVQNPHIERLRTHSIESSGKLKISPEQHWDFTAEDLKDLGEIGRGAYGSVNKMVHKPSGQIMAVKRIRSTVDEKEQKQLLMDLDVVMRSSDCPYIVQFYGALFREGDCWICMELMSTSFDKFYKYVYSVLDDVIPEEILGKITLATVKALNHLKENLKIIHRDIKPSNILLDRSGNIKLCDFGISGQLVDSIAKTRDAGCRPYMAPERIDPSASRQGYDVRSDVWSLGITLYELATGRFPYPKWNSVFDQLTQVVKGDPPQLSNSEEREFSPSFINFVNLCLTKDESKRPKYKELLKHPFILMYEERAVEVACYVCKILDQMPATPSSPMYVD
# T2: MKK6 (Mitogen-Activated Protein Kinase Kinase) (UniProt P52564 1-334)
# T2 sequence: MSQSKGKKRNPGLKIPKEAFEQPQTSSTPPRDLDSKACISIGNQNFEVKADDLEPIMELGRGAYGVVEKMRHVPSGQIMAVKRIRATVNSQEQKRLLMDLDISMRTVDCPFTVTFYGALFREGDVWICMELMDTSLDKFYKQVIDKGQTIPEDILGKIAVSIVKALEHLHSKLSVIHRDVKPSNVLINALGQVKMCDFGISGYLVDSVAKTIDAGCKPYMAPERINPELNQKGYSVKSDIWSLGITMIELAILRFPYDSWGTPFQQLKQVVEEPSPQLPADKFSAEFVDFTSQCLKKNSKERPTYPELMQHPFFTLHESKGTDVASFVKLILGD
# T3: PRAK (p38-Regulated/Activated Protein Kinase) (UniProt Q8IW41 1-473)
# T3 sequence: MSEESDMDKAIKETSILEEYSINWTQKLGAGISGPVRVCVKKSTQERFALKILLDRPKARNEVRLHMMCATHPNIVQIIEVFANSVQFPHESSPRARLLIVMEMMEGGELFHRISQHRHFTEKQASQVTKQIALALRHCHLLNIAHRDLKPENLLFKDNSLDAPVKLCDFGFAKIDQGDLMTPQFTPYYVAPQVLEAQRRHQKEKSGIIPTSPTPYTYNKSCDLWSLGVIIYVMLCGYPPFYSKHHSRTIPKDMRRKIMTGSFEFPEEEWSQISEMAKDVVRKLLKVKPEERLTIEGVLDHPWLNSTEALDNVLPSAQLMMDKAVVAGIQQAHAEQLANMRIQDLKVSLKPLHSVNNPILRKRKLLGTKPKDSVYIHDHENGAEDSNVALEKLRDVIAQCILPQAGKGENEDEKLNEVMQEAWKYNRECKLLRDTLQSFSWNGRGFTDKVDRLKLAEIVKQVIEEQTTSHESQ
# What was measured:
# Experiment in all cases: cell-based or functional assay
# [1] = molecular target: JNK (c-Jun N-terminal Kinase)
# [2] = molecular target: T1, MKK4 (Mitogen-Activated Protein Kinase …)
# [3] = molecular target: T2, MKK6 (Mitogen-Activated Protein Kinase …)
# MEK1 = MEK1 (UniProt Q02750 1-393)
# [4] = molecular target: T3, PRAK (p38-Regulated/Activated Protein …)
# [5] = molecular target: p38 MAPK (p38 Mitogen-Activated Protein Kinase)
binder,measurement,setting,value
YARAAARQARAKALARQLGVAA (not fully specified (C-terminus)) [MMI-0100 (YARAAARQARAKALARQLGVAA; SEQ ID NO: 1)],"Percent Activity (radiometric kinase assay, 100 µM peptide)",[1],92 percent activity
same,"Percent Activity (radiometric kinase assay, 100 µM peptide)",[2],90 percent activity
same,"Percent Activity (radiometric kinase assay, 100 µM peptide)",[3],50 percent activity
same,"Percent Activity (radiometric kinase assay, 100 µM peptide)",MEK1,68 percent activity
same,"Percent Activity (radiometric kinase assay, 100 µM peptide)",[4],100 percent activity
same,"Percent Activity (radiometric kinase assay, 100 µM peptide)",[5],60 percent activity
